This test addresses HLA class I. Put plainly: cell-based or functional assay.

Substance W6/32, the class I-specific antibody registered a reduction in HIV-1 envelope-specific CTL activity (PBMCs from LB as effector cells, E:T 25:1, 1:4 dilution of W6/32 hybridoma supernatant) of 73%; a specific lysis value with W6/32 (PBMCs from LB, E:T 25:1) of 6.2%; a specific lysis value without W6/32 (PBMCs from LB, E:T 25:1) of 23.2%.

Values taken from patent publication US20050032039A1.
